# Experimental data taken from patent US20110319318A1, “COVALENT MILK PROTEIN/ISOTHIOCYANATE COMPLEXES” (NESTEC S.A., priority 2009, published 2011).
# Legend:
# [1] = Emulsifying properties, 10% sunflower oil-in-water emulsions, stability on storage; format: physicochemical
# Protocol: Emulsifying properties of BLG-AITC conjugates, non-heated and heated at pH 7.0 and 4.0 (prepared as described in examples 1 and 2), were evaluated by preparing emulsions containing 10% (w/w) of “high oleic” sunflower oil (Oleifico SABO, Manno, Switzerland). Samples containing BLG-AITC conjugates in the equimolar ratio were diluted to 0.25 mM BLG and mixed with oil in a pyrex tube (D 25 mm, V 35 mL) to a final weight of 20 g. They were pre-homogenized using an Ultra Turrax® T25 equipped with a S25N-10G dispersing head (IKA-Werke, Staufen, Germany) rotating at 16,000 rpm for 1 minute. Homogenization of emulsions was completed using an ultrasonic processor (Hielscher UP400S, power 400 W, frequency 24 kHz) and a sonotrode (diameter 7 mm, approx. length 100 mm, titanium) at room temperature for 75 seconds and 75% amplitude of the ultrasound maximal power. This emulsification time was enough to disperse the oil in small droplets and to avoid excessive heating of the sample.
# Stability of emulsions to creaming and flocculation was followed over 33 days of storage at 4° C.
# β-lactoglobulin (BLG) = target: T1, β-lactoglobulin (BLG) (Bos taurus, UniProt P02754); assay: Binding of AITC to BLG from disappearance of free -SH / -NH2 groups (Ellman's reagent, OPA); set-up: species or system bovine; settings: 25° C., pH 8.5
# T1 construct: The composition in the major whey protein fraction was 89.22% BLG; purchased Davisco Biopure, lot JE 001-3-922
# T1 sequence (P02754 17-178): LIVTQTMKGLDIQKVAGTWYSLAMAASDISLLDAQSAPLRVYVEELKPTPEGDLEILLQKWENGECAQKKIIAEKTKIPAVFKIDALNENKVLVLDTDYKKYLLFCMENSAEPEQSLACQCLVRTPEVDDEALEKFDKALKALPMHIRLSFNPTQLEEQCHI
# Protocol: A volume of 50 mL of mixtures was prepared by mixing 1 mM BLG (pH 8.5) with 200 mM AITC in Millipore® water to obtain AITC to BLG molar ratios from 0.1 to 40. Final concentration of ethanol in all sample solutions was adjusted to 5%. Samples were incubated 24 h at room temperature, under agitation (using a roller mixer SRT2, Milian, Switzerland) and protected from light. Upon incubation, contents in free sulfhydryl (—SH) and amino (—NH2) groups were determined using the Ellman's reagent [5,5′-dithio-bis(2-nitrobenzoic acid); DTNB] (Ellman G L. Tissue sulfhydryl groups. 1959. Arch Biochem Biophys, 82, 70-77) and o-phthaldialdehyde (OPA) methods (Hofmann K, Hamm R. Sulfhydryl and disulfide groups in meats. 1978. Adv Food Res, 24, 1-111), respectively.
# To determine the amount of total —SH groups sample mixtures were diluted to the final BLG concentration 50 μM in 200 mM Tris-base (Tris(hydrohymethyl)-aminomethan) buffer containing 1% SDS and 8M urea at pH 8.0. 50 μL of 10 mM DTNB in ethanol was added to 3 mL of these samples and they were left 20 min at room temperature under mild agitation. The absorbance at 412 nm was measured against corresponding reagent blanks (1% ethanol in the buffer with DTNB) using an Uvikon® 810 spectrophotometer (Kontron Instruments, Basel, Switzerland). […] Therefore, absorbance values of samples were corrected for the absorbance of corresponding concentrations of AITC. Concentration of SH groups in sample solutions was assessed according to the previously made standard calibration curve. For that purpose L-Cys (Fluka, Switzerland) dissolved in the same buffer in concentration range 0.005-0.1 mM was used.
# Quantitative determination of free α- and ε-amino groups was done using the approach based on the method of Goodno et al. (Goodno C. C. Swaisgood H. E., Catignani G. L.; (1981). A fluorimetric assay for available lysine in proteins. Anal. Biochem. 115(1), 203-211.) with modifications done in our laboratory. Briefly, the determination of amino groups was carried out by mixing sample solutions (0.1 mL) with 0.3% (w/v) N-acetyl-L-cystein (Fluka, Switzerland) in borate buffer pH 9.3 (9.1 mL) and 20% SDS (w/w; 0.5 mL). […] Upon incubation, mixtures were allowed to cool down at room temperature for 30 minutes before absorbance reading was done at 340 nm. […] Therefore, absorbance values of samples were corrected for the absorbance of corresponding AITC concentrations. Concentration of free (α- and ε-) amino groups in sample solutions was assessed according to the previously made standard calibration curve. […]
# Assuming that one AITC can bind per one —SH group or per one —NH2 group at the time, the molar binding ratio of AITC to BLG (BAITC/BLG) was estimated from measured values for free —SH and —NH2 groups. […]
# [2] = Foaming properties (Foamscan); format: physicochemical; set-up: key to foam capacity: FC = volume of foam / volume of gas injected; key to foam expansion: FE = volume of foam / volume of liquid in the foam; settings: for foam capacity / foam expansion / foam liquid stability: 55 μM BLG; for foam volume stability: over 30 min
# Protocol: Foaming properties of samples (prepared as described in example 1) were evaluated using the standardized method proposed by Guillerme C, Loisel W, Bertrand D, Popineau Y. Study of foam stability by video image analysis: Relationship with the quantity of liquid in the foams. 1993. J Text Stud, 24, 287-302. The apparatus used was a standard version of the Foamscan™ from Teclis-ITConcept (Longessaigne, France). The principle of the method is to foam a definite quantity of protein dispersion by infusing gas into it through a glass frit of specific porosity. The gas flow and duration of the bubbling are controlled. The foam is generated on the surface of the liquid and it rises in the glass tube where its height is followed in real time by image analysis using a charged-coupled device (CCD) camera. The amount of liquid incorporated into the foam and the drainage rate are followed by measuring the conductivity as a function of time and with reference to the conductivity of the solution before bubbling, in the cuvette (with the remaining liquid phase), and at electrodes placed at different heights of the tube (Kato A, Takahashi A, Matsudomi N, Kobayashi K. Determination of foaming properties of proteins by conductivity measurements. 1983. J Food Sci, 48, 62-65).
# BLG-AITC conjugates were prepared as described in example 1 and then acidified to pH 7.0 or 4.0 by adding 1M HCl. The amount of HCl added was ˜0.02% and ˜0.8% of the total volume, for neutral and acidic pH adjustment, respectively. 12 mL of each sample at both pHs, was put into 12 mL-glass vial and heated on 85° C. for 15 min, in addition to 5 min necessary for temperature in the vial to reach 85° C. The heating was done without agitation, in a temperature-controlled water-bath. Subsequently, samples were let to cool down at room temperature over 40 minutes under a mild agitation, and then put on ice until further analysis.
# A volume of 20 mL of the sample solution (non-heated and heated BLG-AITC covalent complexes with the AITC to BLG molar ratio 0.5, 1 and 2, at both pH), diluted to 55 μM BLG (0.1%) was placed in the cuvette. Nitrogen at the flow rate 80 mL/min was bubbled in through the glass frit of porosity 4, creating the air bubbles with diameters between 10 and 16 μm. This flow rate allowed efficient foam formation before strong gravitational drainage occurred. The bubbling was stopped when the foam volume of 110 cm^3 was reached. Subsequently, foam capacity (FC=volume of foam/volume of gas injected) and foam expansion (FE=volume of the foam/volume of the liquid in the foam) were calculated. Foam volume and liquid stability (time for the foam to drain 50% of its initial liquid content) were followed over next 30 min at 24±1° C.
# Escherichia coli = assay: Antimicrobial activity, optical density decrease at 600 nm; format: cell-based; settings: 0.5 mM BLG, AITC/BLG molar ratio 1 to 20; 24 h at 37° C.; OD 600 nm
# Protocol: (§1) Antimicrobial properties of BLG-AITC conjugates were tested against Escherichia coli and Staphylococcus aureus. Single colony of each bacteria strain, previously grown on agar plates, was inoculated into 10 mL of brain-heart infusion (BHI) broth and incubated 24 h at 37° C. under agitation. For antimicrobial properties evaluation these pre-cultures were diluted 100 times in BHI broth.
# (§2) BLG-AITC covalent complexes, with the AITC to BLG molar ratio 1, 2, 10 and 20, were prepared as described in the example 1 with the difference that 200 mM AITC solution was prepared in DMSO. Samples were subsequently acidified to pH 7.0 and then concentrated 5 times by using Centrisart® I centrifugal ultrafiltration units with cellulose triacetate ultrafilters having the molecular weight cut-off of 10 kDa (Sartorious, Germany) according to manufactures instructions.
# (§3) An aliquot of 600 μL of concentrated samples was added to 2.4 mL of BHI broth containing E. coli or S. aureus to reach the starting concentrations of BLG (0.5 mM) and corresponding concentration of AITC. Controls in which 600 μL of 5% DMSO or water was added were prepared as well. Test tubes with sample mixtures were then incubated 24 h at 37° C. under stirring. Subsequently, optical densities (OD) of samples were measured at 600 nm. To evaluate the inhibition of bacteria growth, ODs of samples containing BLG-AITC covalent complexes were normalized by OD of the corresponding control and are expressed as the OD decrease in percentage.
# Staphylococcus aureus = assay: as above; format: cell-based; settings: 0.5 mM BLG, AITC/BLG molar ratio 1 to 20, 24 h at 37° C.
# Protocol: as §1, §2, §3
# [3] = pH 4.0 with heating (85° C., 15 min)
# [4] = pH 7.0 with heating (85° C., 15 min)
# [5] = pH 7.0, with or without heat treatment
compound,measurement,setting,value
"C=CCN=C=S [AITC, Allyl-isothiocyanate]",ability to emulsify the oil,"[1]; 0.25 mM AITC alone, 10% of sunflower oil",not able to properly emulsify
same,oiling-off,"[1]; 0.25 mM AITC alone, at day=0 and after 24 days of storage",significant oiling-off
same,dissociation constant KD,β-lactoglobulin (BLG); -SH group of BLG,very low
same,dissociation constant KD,β-lactoglobulin (BLG); amino groups of BLG,high
same,number of possible binding sites,β-lactoglobulin (BLG); amino groups of BLG,larger number of possible binding sites
same,maximum number of saturation site (nmax),"β-lactoglobulin (BLG); single free sulfhydryl group of BLG, one site binding fit",0.84±0.06
"AITC/BLG ratio 0.5: BLG-AITC covalent complex, AITC to BLG molar mixing ratio 0.5",foam capacity,[2]; [3],1.16 ± 0.00
same,foam expansion,[2]; [3],7.1 ± 0.2
same,foam liquid stability,[2]; [3],200.0 ± 6.9 s
same,foam capacity,[2]; pH 4.0 without heating,1.18 ± 0.01
same,foam expansion,[2]; pH 4.0 without heating,7.1 ± 0.0
same,foam liquid stability,[2]; pH 4.0 without heating,204.5 ± 8.5 s
same,foam capacity,[2]; [4],1.14 ± 0.01
same,foam expansion,[2]; [4],6.7 ± 0.1
same,foam liquid stability,[2]; [4],133.0 ± 4.7 s
same,foam capacity,[2]; pH 7.0 without heating,1.16 ± 0.01
same,foam expansion,[2]; pH 7.0 without heating,6.8 ± 0.1
same,foam liquid stability,[2]; pH 7.0 without heating,152.0 ± 3.3 s
"AITC/BLG ratio 1: BLG-AITC covalent complex, AITC to BLG molar mixing ratio 1",foam capacity,[2]; [3],1.17 ± 0.01
same,foam expansion,[2]; [3],7.3 ± 0.2
same,foam liquid stability,[2]; [3],190.5 ± 2.4 s
same,foam capacity,[2]; pH 4.0 without heating,1.18 ± 0.01
same,foam expansion,[2]; pH 4.0 without heating,7.1 ± 0.1
same,foam liquid stability,[2]; pH 4.0 without heating,217.5 ± 1.0 s
same,foam volume stability,[2]; [5],best foam stability
same,foam capacity,[2]; [4],1.14 ± 0.02
same,foam expansion,[2]; [4],6.8 ± 0.1
same,foam liquid stability,[2]; [4],130.0 ± 4.2 s
same,foam capacity,[2]; pH 7.0 without heating,1.16 ± 0.01
same,foam expansion,[2]; pH 7.0 without heating,6.7 ± 0.1
same,foam liquid stability,[2]; pH 7.0 without heating,159.0 ± 1.8 s
"AITC/BLG ratio 2: BLG-AITC covalent complex, AITC to BLG molar mixing ratio 2",foam capacity,[2]; [3],1.16 ± 0.01
same,foam expansion,[2]; [3],7.1 ± 0.2
same,foam liquid stability,[2]; [3],193.0 ± 2.7 s
same,foam capacity,[2]; pH 4.0 without heating,1.18 ± 0.01
same,foam expansion,[2]; pH 4.0 without heating,7.0 ± 0.0
same,foam liquid stability,[2]; pH 4.0 without heating,216.3 ± 5.0 s
same,foam capacity,[2]; [4],1.16 ± 0.01
same,foam expansion,[2]; [4],6.7 ± 0.1
same,foam liquid stability,[2]; [4],128.0 ± 3.8 s
same,foam capacity,[2]; pH 7.0 without heating,1.17 ± 0.01
same,foam expansion,[2]; pH 7.0 without heating,6.8 ± 0.1
same,foam liquid stability,[2]; pH 7.0 without heating,145.5 ± 3.9 s
"BLG-AITC covalent complexes: covalent complexes of β-lactoglobulin and allyl isothiocyanate, various AITC to BLG molar ratios",reduction of optical density (OD),Escherichia coli,able to reduce the optical density
same,sensitivity compared with E. coli,Staphylococcus aureus,more sensitive
same,reduction of optical density (OD),Staphylococcus aureus; OD 600 nm,able to reduce the optical density
same,stability of emulsions to creaming and flocculation,"[1]; 10% sunflower oil, molar ratio 1:1, 0.25 mM BLG, 33 days of storage at 4° C., neutral or acidic pH, with or without heat treatment",very stable emulsions
same,improvement of foam liquid stability (more time stability),[2]; foam produced in acidic conditions versus pH 7.0,more than 30%
same,foam volume stability,"[2]; pH 4.0, without or with heating",more volume stable than at pH 7.0
same,foam volume stability,[2]; [5],volume stable foams
